System: CCR5-targeting megaTAL (CCR5MT) expressed as a CCR5MT-tEGFR fusion (Artificial sequence)
Assay: cell_activity
Details: tEGFR-sorted primary human CD4 T cells, donor 1; estimated InDels 58.76%; donor 2 73.54% cleaved; untreated 0%; SEQ:6 assigned to the megaTAL by inference from …

CCR5 gene megaTAL target site
activity (% cleaved DNA (T7E1)): 83

From patent publication US20230167431
